In patent US20090099029:

B1: PAK1 (protein)
chain: MSNNGLDIQDKPPAPPMRNTSTMIGAGSKDAGTLNHGSKPLPPNPEEKKKKDRFYRSILPGDKTNKKKEKERPEISLPSDFEHTIHVGFDAVTGEFTGMPEQWARLLQTSNITKSEQKKNPQAVLDVLEFYNSKKTSNSQKYMSFTDKSAEDYNSSNALNVKAVSETPAVPPVSEDEDDDDDDATPPPVIAPRPEHTKSVYTRSVIEPLPVTPTRDVATSPISPTENNTTPPDALTRNTEKQKKKPKMSDEEILEKLRSIVSVGDPKKKYTRFEKIGQGASGTVYTAMDVATGQEVAIKQMNLQQQPKKELIINEILVMRENKNPNIVNYLDSYLVGDELWVVMEYLAGGSLTDVVTETCMDEGQIAAVCRECLQALEFLHSNQVIHRDIKSDNILLGMDGSVKLTDFGFCAQITPEQSKRSTMVGTPYWMAPEVVTRKAYGPKVDIWSLGIMAIEMIEGEPPYLNENPLRALYLIATNGTPELQNPEKLSAIFRDFLNRCLEMDVEKRGSAKELLQHQFLKIAKPLSSLTPLIAAAKEATKNNH
B2: PAK3 (protein)
chain: MSDGLDNEEKPPAPPLRMNSNNRDSSALNHSSKPLPMAPEEKNKKARLRSIFPGGGDKTNKKKEKERPEISLPSDFEHTIHVGFDAVTGEFTGIPEQWARLLQTSNITKLEQKKNPQAVLDVLKFYDSKETVNNQKYMSFTSGDKSAHGYIAAHPSSTKTASEPPLAPPVSEEEDEEEEEEEDENEPPPVIAPRPEHTKSIYTRSVVESIASPAVPNKEVTPPSAENANSSTLYRNTDRQRKKSKMTDEEILEKLRSIVSVGDPKKKYTRFEKIGQGASGTVYTALDIATGQEVAIKQMNLQQQPKKELIINEILVMRENKNPNIVNYLDSYLVGDELWVVMEYLAGGSLTDVVTETCMDEGQIAAVCRECLQALDFLHSNQVIHRDIKSDNILLGMDGSVKLTDFGFCAQITPEQSKRSTMVGTPYWMAPEVVTRKAYGPKVDIWSLGIMAIEMVEGEPPYLNENPLRALYLIATNGTPELQNPERLSAVFRDFLNRCLEMDVDRRGSAKELLQHPFLKLAKPLSSLTPLIIAAKEAIKNSSR
B3: PAK6 (protein)
chain: MFRKKKKKRPEISAPQNFQHRVHTSFDPKEGKFVGLPPQWQNILDTLRRPKPVVDPSRITRVQLQPMKTVVRGSAMPVDGYISGLLNDIQKLSVISSNTLRGRSPTSRRRAQSLGLLGDEHWATDPDMYLQSPQSERTDPHGLYLSCNGGTPAGHKQMPWPEPQSPRVLPNGLAAKAQSLGPAEFQGASQRCLQLGACLQSSPPGASPPTGTNRHGMKAAKHGSEEARPQSCLVGSATGRPGGEGSPSPKTRESSLKRRLFRSMFLSTAATAPPSSSKPGPPPQSKPNSSFRPPQKDNPPSLVAKAQSLPSDQPVGTFSPLTTSDTSSPQKSLRTAPATGQLPGRSSPAGSPRTWHAQISTSNLYLPQDPTVAKGALAGEDTGVVTHEQFKAALRMVVDQGDPRLLLDSYVKIGEGSTGIVCLAREKHSGRQVAVKMMDLRKQQRRELLFNEVVIMRDYQHFNVVEMYKSYLVGEELWVLMEFLQGGALTDIVSQVRLNEEQIATVCEAVLQALAYLHAQGVIHRDIKSDSILLTLDGRVKLSDFGFCAQISKDVPKRKSLVGTPYWMAPEVISRSLYATEVDIWSLGIMVIEMVDGEPPYFSDSPVQAMKRLRDSPPPKLKNSHKVSPVLRDFLERMLVRDPQERATAQELLDHPFLLQTGLPECLVPLIQLYRKQTSTC
B4: MAPKAPK5(PRAK) (protein)
chain: MSEESDMDKAIKETSILEEYSINWTQKLGAGISGPVRVCVKKSTQERFALKILLDRPKARNEVRLHMMCATHPNIVQIIEVFANSVQFPHESSPRARLLIVMEMMEGGELFHRISQHRHFTEKQASQVTKQIALALRHCHLLNIAHRDLKPENLLFKDNSLDAPVKLCDFGFAKIDQGDLMTPQFTPYYVAPQVLEAQRRHQKEKSGIIPTSPTPYTYNKSCDLWSLGVIIYVMLCGYPPFYSKHHSRTIPKDMRRKIMTGSFEFPEEEWSQISEMAKDVVRKLLKVKPEERLTIEGVLDHPWLNSTEALDNVLPSAQLMMDKAVVAGIQQAHAEQLANMRIQDLKVSLKPLHSVNNPILRKRKLLGTKPKDSVYIHDHENGAEDSNVALEKLRDVIAQCILPQAGENEDEKLNEVMQEAWKYNRECKLLRDTLQSFSWNGRGFTDKVDRLKLAEIVKQVIEEQTTSHESQ
B5: MINK1 (protein)
chain: MGDPAPARSLDDIDLSALRDPAGIFELVEVVGNGTYGQVYKGRHVKTGQLAAIKVMDVTEDEEEEIKQEINMLKKYSHHRNIATYYGAFIKKSPPGNDDQLWLVMEFCGAGSVTDLVKNTKGNALKEDCIAYICREILRGLAHLHAHKVIHRDIKGQNVLLTENAEVKLVDFGVSAQLDRTVGRRNTFIGTPYWMAPEVIACDENPDATYDYRSDIWSLGITAIEMAEGAPPLCDMHPMRALFLIPRNPPPRLKSKKWSKKFIDFIDTCLIKTYLSRPPTEQLLKFPFIRDQPTERQVRIQLKDHIDRSRKKRGEKEETE
B6: NEK3 (protein)
chain: MDDYMVLRMIGEGSFGRALLVQHESSNQMFAMKEIRLPKSFSNTQNSRKEAVLLAKMKHPNIVAFKESFEAEGHLYIVMEYCDGGDLMQKIKQQKGKLFPEDMILNWFTQMCLGVNHIHKKRVLHRDIKSKNIFLTQNGKVKLGDFGSARLLSNPMAFACTYVGTPYYVPPEIWENLPYNNKSDIWSLGCILYELCTLKHPFQANSWKNLILKVCQGCISPLPSHYSYELQFLVKQMFKRNPSHRPSATTLLSRGIVARLVQKCLPPEIIMEYGEEVLEEIKNSKHNTPRKKTNPSRIRIALGNEASTVQEEEQDRKGSHTDLESINENLVESALRRVNREEKGNKSVHLRKASSPNLHRRQWEKNVPNTALTALENASILTSSLTAEDDRGGSVIKYSKNTTRKQWLKETPDTLLNILKNADLSLAFQTYTIYRPGSEGFLKGPLSEETEASDSVDGGHDSVILDPERLEPGLDEEDTDFEEEDDNPDWVSELKKRAGWQGLCDR
B7: PLK3 (protein)
chain: SGRTYLKGRLLGKGGFARCYEATDTETGSAYAVKVIPQSRVAKPHQREKILNEIELHRDLQHRHIVRFSHHFEDADNIYIFLELCSRKSLAHIWKARHTLLEPEVRYYLRQILSGLKYLHQRGILHRDLKLGNFFITENMELKVGDFGLAARLEPPEQRKKTICGTPNYVAPEVLLRQGHGPEADVWSLGCVMYTLLCGSPPFETADLKETYRCIKQVHYTLPASLSLPARQLLAAILRASPRDRPSIDQILRHDFFTKGYTPDRLPISSCVTVPDLTPPNPA
B8: PHKG2 (protein)
chain: MTLDVGPEDELPDWAAAKEFYQKYDPKDVIGRGVSSVVRRCVHRATGHEFAVKIMEVTAERLSPEQLEEVREATRRETHILRQVAGHPHIITLIDSYESSSFMFLVFDLMRKGELFDYLTEKVALSEKETRSIMRSLLEAVSFLHANNIVHRDLKPENILLDDNMQIRLSDFGFSCHLEPGEKLRELCGTPGYLAPEILKCSMDETHPGYGKEVDLWACGVILFTLLAGSPPFWHRRQILMLRMIMEGQYQFSSPEWDDRSSTVKDLISRLLQVDPEARLTAEQALQHPFFERCEGSQPWNLTPRQRFRVAVWTVLAAGRVALSTHRVRPLTKNALLRDPYALRSVRHLIDNCAFRLYGHWVKKGEQQNRAALFQHRPPGPFPIMGPEEEGDSAAITEDEAVLVLG
B9: MYLK2 (protein)
chain: MATENGAVELGIQNPSTDKAPKGPTGERPLAAGKDPGPPDPKKAPDPPTLKKDAKAPASEKGDGTLAQPSTSSQGPKGEGDRGGGPAEGSAGPPAALPQQTATPETSVKKPKAEQGASGSQDPGKPRVGKKAAEGQAAARRGSPAFLHSPSCPAIISSSEKLLAKKPPSEASELTFEGVPMTHSPTDPRPAKAEEGKNILAESQKEVGEKTPGQAGQAKMQGDTSRGIEFQAVPSEKSEVGQALCLTAREEDCFQILDDCPPPPAPFPHRMVELRTGNVSSEFSMNSKEALGGGKFGAVCTCMEKATGLKLAAKVIKKQTPKDKEMVLLEIEVMNQLNHRNLIQLYAAIETPHEIVLFMEYIEGGELFERIVDEDYHLTEVDTMVFVRQICDGILFMHKMRVLHLDLKPENILCVNTTGHLVKIIDFGLARRYNPNEKLKVNFGTPEFLSPEVVNYDQISDKTDMWSMGVITYMLLSGLSPFLGDDDTETLNNVLSGNWYFDEETFEAVSDEAKDFVSNLIVKDQRARMNAAQCLAHPWLNNLAEKAKRCNRRLKSQILLKKYLMKRRWKKNFIAVSAANRFKKISSSGALMALGV
B10: EPHA8 (protein)
chain: KKRHCGYSKAFQDSDEEKMHYQNGQAPPPVFLPLHHPPGKLPEPQFYAEPHTYEEPGRAGRSFTREIEASRIHIEKIIGSGDSGEVCYGRLRVPGQRDVPVAIKALKAGYTERQRRDFLSEASIMGQFDHPNIIRLEGVVTRGRLAMIVTEYMENGSLDTFLRTHDGQFTIMQLVGMLRGVGAGMRYLSDLGYVHRDLAARNVLVDSNLVCKVSDFGLSRVLEDDPDAAYTTTGGKIPIRWTAPEAIAFRTFSSASDVWSFGVVMWEVLAYGERPYWNMTNRDVISSVEEGYRLPAPMGCPHALHQLMLDCWHKDRAQRPRFSQIVSVLDALIRSPESLRATATVSRCPPPAFVRSCFDLRGGSGGGGGLTVGDWLDSIRMGRYRDHFAAGGYSSLGMVLRMNAQDVRALGITLMGHQKKILGSIQTMRAQLTSTQGPRRHL
B11: EPHB1 (protein)
chain: SRKRAYSKEAVYSDKLQHYSTGRGSPGMKIYIDPFTYEDPNEAVREFAKEIDVSFVKIEEVIGAGEFGEVYKGRLKLPGKREIYVAIKTLKAGYSEKQRRDFLSEASIMGQFDHPNIIRLEGVVTKSRPVMIITEFMENGALDSFLRQNDGQFTVIQLVGMLRGIAAGMKYLAEMNYVHRDLAARNILVNSNLVCKVSDFGLSRYLQDDTSDPTYTSSLGGKIPVRWTAPEAIAYRKFTSASDVWSYGIVMWEVMSFGERPYWDMSNQDVINAIEQDYRLPPPMDCPAALHQLMLDCWQKDRNSRPRFAEIVNTLDKMIRNPASLKTVATITAVPSQPLLDRSIPDFTAFTTVDDWLSAIKMVQYRDSFLTAGFTSLQLVTQMTSEDLLRIGITLAGHQKKILNSIHSMRVQISQSPTAMA
B12: NEK2 (protein)
chain: MPSRAEDYEVLYTIGTGSYGRCQKIRRKSDGKILVWKELDYGSMTEAEKQMLVSEVNLLRELKHPNIVRYYDRIIDRTNTTLYIVMEYCEGGDLASVITKGTKERQYLDEEFVLRVMTQLTLALKECHRRSDGGHTVLHRDLKPANVFLDGKQNVKLGDFGLARILNHDTSFAKTFVGTPYYMSPEQMNRMSYNEKSDIWSLGCLLYELCALMPPFTAFSQKELAGKIREGKFRRIPYRYSDELNEIITRMLNLKDYHRPSVEEILENPLIADLVADEQRRNLERRGRQLGEPEKSQDSSPVLSELKLKEIQLQERERALKAREERLEQKEQELCVRERLAEDKLARAENLLKNYSLLKERKFLSLASNPELLNLPSSVIKKKVHFSGESKENIMRSENSESQLTSKSKCKDLKKRLHAAQLRAQALSDIEKNYQLKSRQILGMR

Biological target: T1, Bovine, dephosphorylated, Myelin Basic Protein (MBP), P02687
T1 chain: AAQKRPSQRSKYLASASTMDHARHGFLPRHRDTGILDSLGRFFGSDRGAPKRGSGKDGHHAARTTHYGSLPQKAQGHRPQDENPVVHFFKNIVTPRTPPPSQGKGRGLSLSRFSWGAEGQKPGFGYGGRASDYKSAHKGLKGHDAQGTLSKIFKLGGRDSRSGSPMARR
In the case of B1, the “MBP Kinase Activity” value is reported as “Negative”.
With B2 the “MBP Kinase Activity” value was “Weak”.
In the case of B3, the “MBP Kinase Activity” value is reported as “Negative”.
B4 was tested, and the “MBP Kinase Activity” value was “Strong”.
For B5, the “MBP Kinase Activity” value was “Weak”.
For B6, the “MBP Kinase Activity” value was “Negative”.
For B7, the “MBP Kinase Activity” value was “Negative”.
B8 was tested, and the “MBP Kinase Activity” value was “Negative”.
For B9, the “MBP Kinase Activity” value was “Negative”.
In the case of B10, the “MBP Kinase Activity” value is reported as “Weak”.
With B11 the “MBP Kinase Activity” value was “Strong”.
With B12 the “MBP Kinase Activity” value was “Strong”.
